The values below come from patent US20210252159A1, “CONJUGATES OF CARTILAGE-HOMING PEPTIDES” (priority 2018, published 2021).

No end group written: not given here.

A short description of data set [1]: Biodistribution and pharmacokinetics of ^14C-labeled peptides in knee and IVD (QWBA). Format: in vivo, athymic nude mice. To be noted: for levels in knee and IVD compared with peptide(SEQ ID NO: 105): After 24 hours. The procedure: Synthetic peptides were radiolabeled by reductive methylation of the N-terminus with ^14C formaldehyde. 2 mice per time point were injected IV with 12.4 μCi of peptide (approximately 100 nmol or 18 mg/kg) and then euthanized at 0.08, 0.5, 1, 3, 8, 24, 48, 72, or 96 hours, followed by quantitative whole body autoradiography analysis.
To that end, the biodistribution pharmacokinetics of ^14C-labeled peptides ^14C-peptide(SEQ ID NO: 105), ^14C-peptide(SEQ ID NO: 103), and ^14C-peptide(SEQ ID NO: 184) to the knee (FIG. 19A and FIG. 19B) and intraverterbral discs (IVD, FIG. 19C and FIG. 19D) was assessed in mice (FIG. 19). Tissue levels were quantified by whole body autoradiography of peptides that had been radiolabeled by reductive methylation of the N-terminus. ^14C-peptide(SEQ ID NO: 105) and ^14C-peptide(SEQ ID NO: 103) both peaked in knee and IVD around 1-3 hours whereas ^14C-peptide(SEQ ID NO: 184) peaked later at 8 hours. […] All peptides still had observable signal at the last time point of 96 hours. […] As the peptide levels are based on the radiolabel attached to the N-terminus of the peptide, the decrease in signal with time may be due to aminopeptidase activity on the N-terminus of the peptides (which would not be relevant on PDC conjugates, where the drug linker is attached to the N-terminus), due to peptide diffusion back out of the cartilage, or due to general peptide backbone cleavage. For example, higher sustained levels of peptide in the cartilage may be desirable if drug cleavage has a slower pharmacokinetics, and if the peptide-drug conjugate is not saturating peptide binding sites in the cartilage when using repeat dosing. As another example, an earlier tmax in cartilage may be desirable to minimize premature cleavage of a conjugated drug in serum.

A short description of data set [2]: Comparison of joint retention time among radiolabeled peptides (QWBA, knee and IVD). Format: in vivo. The arrangement: Peptide Signal Retention in Knee / Peptide Signal Retention in IVD: unit not given here. The conditions noted are these: for joint retention: SEQ ID NO: 105 57-60 nmol, SEQ ID NO: 103 130 nmol, SEQ ID NO: 184 150 nmol. The procedure:
Frozen carcasses were allowed to off gas hexane overnight at −20° and then embedded in chilled 2% carboxymethylcellulose (Sigma Aldrich) and sectioned sagittally at a thickness of 40 μm on an H/I Bright 8250 Cryostat (Hacker Instruments). Radioactive control guides were drilled into each block to verify even cutting depth along the length of the section. The radioactive guide consisted of ^14C-Glycine (American Radiolabeled Chemicals, “ARC”) at 0.5 uCi/ml in 0.5% BSA (Sigma Aldrich) in PBS. Sections were collected onto 4-inch wide tape (Scotch 821, ULINE) at 2-4 depths to sample approximately 30 tissues with particular focus on the knees and spine. Collected sections were freeze dried in the cryostat for 48-72 hours then mounted on sturdy paper and covered with a single protective layer of cellophane (Reynolds Food Service Film). Mounted sections were exposed to phosphor imager plates (Raytest) along with a radioactive standard Curve (1465-PL, ARC) for 7-days, scanned on a Raytest CR-35 at “25 μm sensitive” setting.
Quantification of the radioactivity detected in WBA samples was evaluated by measuring the pixel density/mm^2 (“SI”: Signal Intensity/Area−background) using AIDA Image Analyzer v 5.1 Whole Body Autoradiography Professional software (Raytest). Regions of interest (ROIs) were drawn manually around the entire visible tissue, comparing the sectioned sample to the autoradiogram. For quantification, all visible knee or IVD (intervertebral disc) tissues for one rodent across all collected sections were measured and averaged together to generate one knee or IVD value per animal. Typically were sampled 1-2 knee values (from femoral and tibial cartilage) per 1-2 sections per animal and 3-10 IVD per 1-2 sections per animal. To collect quantified values for other tissues, ROIs were drawn around blood in the heart ventricle, spinotrapezius muscle, the liver, or the kidney (including cortex and medulla) in all sections in which the tissue was observed and then averaged to yield one value per tissue per animal.
Data were presented as nmol of compound per gram of tissue. The commercial standard strips co-exposed with each WBA sample set were calibrated so that a known amount of radioactive counts per minute (CPM) per gram of tissue, determined by liquid scintillation counting (LSC), corresponded to the measured WBA SI at 11 standard strip concentration data points. The regression line of the log 10 transformed WBA signal intensity plotted against the log 10 transformed CPM/g gave a linear range of 1×10^5 to 7.5×10^7 WBA SI, corresponding to 6.3 nCi/g to 3.3 μCi/g. The log 10 concentration of radioactivity in each tissue (CPM/g) was interpolated from the standard curve, converted to linear values, and translated from CPM/g to uCi/g by interpolation against an LSC CPM to μCi standard curve. Uptake (nmol of compound/g of tissue) was determined by dividing the μCi/g tissue by the μCi/nmol specific activity of the peptide.
Peptide(SEQ ID NO: 105) was dosed at 57-60 nmol. Peptide(SEQ ID NO: 103) was dosed at 130 nmol. Peptide(SEQ ID NO: 184) was dosed at 150 nmol. […] It should be noted that detection of retention is based on an assay that detects radiolabeling of the N-terminus of each of the tested conjugates, thus decrease in signal over time may be due not only to peptide diffusion back out of the cartilage but also aminopeptidase-mediated removal of N-terminal amino acid, general peptide cleavage, or other mechanisms. Results as measured by QWBA methods described herein are shown in Tables 6 and 7 below and FIG. 11.

With “GSGDCLPHLRRCRENNDCCSRRCRRRGANPERRCR (not fully specified (N-terminus, bridges); cysteine pairing not given here) [peptide(SEQ ID NO: 184), cartilage-homing cystine-dense peptide; biodistribution with form ^14C-methylated on the N-terminus]”, the “levels in knee and IVD compared with peptide(SEQ ID NO: 105)” value in data set [1] was “substantially higher levels”. Besides, the “time of peak in knee and IVD” value in data set [1] (mice, approximately 100 nmol IV, QWBA) came to 8 h. For the same sequence, the “Peptide Signal Retention in IVD” value turned out to be 53.02 in data set [2] (0.08 Hours); 49.70 in data set [2] (0.5 Hours); 100.00 in data set [2] (1 Hours); 238.11 in data set [2] (3 Hours); 119.97 in data set [2] (8 Hours); 64.00 in data set [2] (24 Hours). In addition, the results for the “Peptide Signal Retention in IVD” value in data set [2] (48 Hours), in data set [2] (72 Hours) and in data set [2] (96 Hours) were 49.99, 52.20 and 36.54, respectively. Moreover, the “Peptide Signal Retention in Knee” value is on record as 96.94 in data set [2] (0.08 Hours); 69.85 in data set [2] (0.5 Hours); 100.00 in data set [2] (1 Hours); 158.43 in data set [2] (3 Hours); 111.32 in data set [2] (8 Hours); 57.81 in data set [2] (24 Hours). For the same sequence, the “Peptide Signal Retention in Knee” value came to 50.44 in data set [2] (48 Hours), 28.30 in data set [2] (72 Hours) and 11.84 in data set [2] (96 Hours). For the same sequence, the joint retention entry in data set [2] was “Longer joint retention”.

As to “GSSERDCIRHLQRCRENRDCCSRRCSRRGTNPERRCR (not fully specified (N-terminus, bridges); cysteine pairing not given here) [peptide(SEQ ID NO: 103), cartilage-homing cystine-dense peptide; biodistribution with form ^14C-methylated on the N-terminus]”, the “levels in knee and IVD compared with peptide(SEQ ID NO: 105)” value in data set [1] is “substantially higher levels”. Also, the “Peptide Signal Retention in IVD” value in data set [2] (0.08 Hours) came to 59.15; in data set [2] (0.5 Hours), 76.62; in data set [2] (1 Hours), 100.00; in data set [2] (3 Hours) it was 113.18; in data set [2] (8 Hours) it was 107.52; in data set [2] (24 Hours), 50.75. The “Peptide Signal Retention in IVD” value in data set [2] (48 Hours) is reported as 34.86. Further, the “Peptide Signal Retention in Knee” value in data set [2] (0.08 Hours) is 79.20; in data set [2] (0.5 Hours), 110.57; in data set [2] (1 Hours), 100.00; in data set [2] (3 Hours) it was 103.00; in data set [2] (8 Hours), 98.94; in data set [2] (24 Hours), 44.60. The “Peptide Signal Retention in Knee” value in data set [2] (48 Hours) was determined as 29.30. Besides, the joint retention entry in data set [2] is recorded as “Longer joint retention”.
